We go through 29 molecules from paper PMC8324831, “A synthetic nanobody targeting RBD protects hamsters from SARS-CoV-2 infection” (Nature Communications, 2021).

For test [1], the target named is T1, SARS-CoV-2 S-RBD with Avi-tag and deca-His tag (residues 330-531) (SARS-CoV-2, UniProt P0DTC2, biotin on the Avi tag (BirA) where immobilised on streptavidin sensors or used in ELISA and FSEC).
Test [2] concerns the target T1, SARS-CoV-2 S-RBD with Avi-tag and …. The experiment in a line: BLI; Octet RED96; biotinylated RBD immobilised on SA sensor; sybodies as analytes; 30 °C; 0.005% Tween 20, 150 mM NaCl, 20 mM Tris HCl pH 8.0; fitted for 1:1 stoichiometry. The note with it: both partners purified. Background: In BLI a coated tip is dipped into the sample, and binding shifts an interference pattern.

For test [3] the target is unchanged. In words: cell-based or functional assay.
Test [4] has the same target. In words: SEC. To be noted: one partner purified.

Like-named read-outs stand apart in the source and are kept apart here.

B1: MR18 (VHH)
VHH: QVQLVESGGGLVQAGGSLRLSCAASGFPVWEHHMAWYRQAPGKEREWVAAITSKGRYTTYADSVKGRFTISRDNAKNTVYLQMNSLKPEDTAVYYCHVKDAGYFDAQYDYWGQGTQVTVS
Turning to B1, the binding result in test [1] is “binds”.

B2: MR15 (VHH)
VHH: QVQLVESGGGLVQAGGSLRLSCAASGFPVDTWMEWYRQAPGKEREWVAAITSYGYKTYYADSVKGRFTISRDNAKNTVYLQMNSLKPEDTAVYYCNVKDFGYASTYYDYWGQGTQVTVS
As to B2, the binding result in test [1] is given as “binds”.

B3: MR19 (VHH)
VHH: QVQLVESGGGLVQAGGSLRLSCAASGFPVRNTEHMYWYRQAPGKEREWVAAIFSMGRFTKYADSVKGRFTISRDNAKNTVYLQMNSLKPEDTAVYYCNVKDTGSFSEGYDYWGQGTQVTVS
For B3, in test [1], the binding result was “binds”.

B4: sybody MR3 (VHH)
VHH: QVQLVESGGGLVQAGGSLRLSCAASGFPVNAHFMYWYRQAPGKEREWVAAIYSYGRTLYADSVKGRFTISRDNAKNTVYLQMNSLKPEDTAVYYCNVKDYGAASWEYDYWGQGTQVTVS
For the molecule B4, in test [2], the Kd – broadly, the free concentration of one partner at which half of the binding sites on the other are occupied at equilibrium, for simple one-to-one binding – was 1 nM and the koff (as a rule, the first-order rate constant of dissociation) was found to be 0.00023 s⁻¹. In addition, the “IC50 of neutralisation of SARS-CoV-2 S pseudovirus on VeroE6-hACE2 cells (blocks RBD-ACE2)” value in test [3] was determined as 0.42 µg/mL.

B5: LR8 (VHH)
VHH: QVQLVESGGGSVQAGGSLRLSCAASGTIAYIKYLGWFRQAPGKEREGVAALMTRWGETYYADSVKGRFTVSLDNAKNTVYLQMNSLKPEDTALYYCAAANYGANFPLQANTYFYWGQGTQVTVS
For B5, in test [1], the binding result is reported as “binds”.

B6: LR17 (VHH)
VHH: QVQLVESGGGSVQAGGSLRLSCAASGSIAHIKYLGWFRQAPGKEREGVAALMTRHGQTYYADSVKGRFTVSLDNAKNTVYLQMNSLKPEDTALYYCAAAYYGANFPLFQTGYTYWGQGTQVTVS
B6: the binding result in test [1] was “binds”.

B7: LR12 (VHH)
VHH: QVQLVESGGGSVQAGGSLRLSCAASGSIASIKYLGWFRQAPGKEREGVAALMTRWGETYYADSVKGRFTVSLDNAKNTVYLQMNSLKPEDTALYYCAAAECGANSPLHAKDYSYWGQGTQVTVS
Turning to B7, in test [1], the binding result is “binds”.

B8: LR11 (VHH)
VHH: QVQLVESGGGSVQAGGSLRLSCAASGSISSITYLGWFRQAPGKEREGVAALVTHSGSTYYADSVKGRFTVSLDNAKNTVYLQMNSLKPEDTALYYCAAAYWGWDWPLNSQDYWYWGQGTQVTVS
In the case of B8, in test [1], the binding result is given as “binds”.

B9: LR16 (VHH)
VHH: QVQLVESGGGSVQAGGSLRLSCAASGSISSITYLGWFRQAPGKEREGVAALYTTHGYTYYADSVKGRFTVSLDNAKNTVYLQMNSLKPEDTALYYCAAADWGYNIPLNITDYWYWGQGTQVTVS
With B9, the binding result in test [1] is given as “binds”.

B10: LR13 (VHH)
VHH: QVQLVESGGGSVQAGGSLRLSCAASGSISSITYLGWFRQAPGKEREGVAALITHAGRTYYADSVKGRFTVSLDNAKNTVYLQMNSLKPEDTALYYCAAADWGWYWPLVIDHYEYWGQGTQVTVS
On to B10, for which the binding result in test [1] is “binds”.

B11: MR12 (VHH)
VHH: QVQLVESGGGLVQAGGSLRLSCAASGFPVEWSHMHWYRQAPGKEREWVAAIVSTGEYTKYADSVKGRFTISRDNAKNTVYLQMNSLKPEDTAVYYCNVKDWYGQAKSYDYWGQGTQVTVS
In the case of B11, the binding result in test [1] is given as “binds”.

B12: MR14 (VHH)
VHH: QVQLVESGGGLVQAGGSLRLSCAASGFPVMYTHMHWYRQAPGKEREWVAAIVSLGEYTTYADSVKGRFTISRDNAKNTVYLQMNSLKPEDTAVYYCNVKDWGAANKYYDYWGQGTQVTVS
B12: the binding result in test [1] was “binds”.

B13: MR16 (VHH)
VHH: QVQLVESGGGLVQAGGSLRLSCAASGFPVERTWMEWYRQAPGKEREWVAAITSYGYRTYYADSVKGRFTISRDNAKNTVYLQMNSLKPEDTAVYYCNVKDEGSASSAYDYWGQGTQVTVS
Turning to B13, the binding result in test [1] is “binds”.

B14: sybody MR4 (VHH)
VHH: QVQLVESGGGLVQAGGSLRLSCAASGFPMYAWEMAWYRQAPGKEREWVAAIRSMGVHTHYSDSVKGRFTISRDNAKNTVYLQMNSLKPEDTAVYYCNVKDFGGHQAYYDYWGQGTQVTVS
Consider B14, for which, in test [4], the binding result was “binds”.

B15: LR10 (VHH)
VHH: QVQLVESGGGSVQAGGSLRLSCAASGTISSITYLGWFRQAPGKEREGVAALTTNNGHTYYADSVKGRFTVSLDNAKNTVYLQMNSLKPEDTALYYCAAADWGYDWPLDRYHYWYWGQGTQVTVS
For the molecule B15, the binding result in test [1] is “binds”.

B16: LR15 (VHH)
VHH: QVQLVESGGGSVQAGGSLRLSCAASGSISSITYLGWFRQAPGKEREGVAALKTASGQTYYADSVKGRFTVSLDNAKNTVYLQMNSLKPEDTALYYCAAADWGYNWPLIREEYEYWGQGTQVTVS
Turning to B16, in test [1], the binding result is recorded as “binds”.

B17: LR18 (VHH)
VHH: QVQLVESGGGSVQAGGSLRLSCAASGSISSITYLGWFRQAPGKEREGVAALVTENGHTYYADSVKGRFTVSLDNAKNTVYLQMNSLKPEDTALYYCAAATWGYEWPLYSNDYFYWGQGTQVTVS
As for B17, the binding result in test [1] is “binds”.

B18: LR14 (VHH)
VHH: QVQLVESGGGSVQAGGSLRLSCAASGSIPGITYLGWFRQAPGKEREGVAALVTNSGHTYYADSVKGRFTVSLDNAKNTVYLQMNSLKPEDTALYYCAAADWGYQWPLDKAEYWYWGQGTQVTVS
For the molecule B18, the binding result in test [1] is listed as “binds”.

B19: sybody LR5 (VHH)
VHH: QVQLVESGGGSVQAGGSLRLSCAASGSISSITYLGWFRQAPGKEREGVAALITSNGRTYYADSVKGRFTVSLDNAKNTVYLQMNSLKPEDTALYYCAAATWGYHWPLGAWDYWYWGQGTQVTVS
Take B19: in test [4], the binding result is “binds”.

B20: LR4 (VHH)
VHH: QVQLVESGGGSVQAGGSLRLSCAASGFIHSIYYLGWFRQAPGKEREGVAALNTQHGTTYYADSVKGRFTVSLDNAKNTVYLQMNSLKPEDTALYYCAAARWGRNYPLNYWQYSYWGQGTQVTVS
Consider B20, for which, in test [1], the binding result is recorded as “binds”.

B21: MR13 (VHH)
VHH: QVQLVESGGGLVQAGGSLRLSCAASGFPVKNMNMHWYRQAPGKEREWVAAIYSYGVETHYADSVKGRFTISRDNAKNTVYLQMNSLKPEDTAVYYCNVKDWGSYMNWYDYWGQGTQVTVS
For B21, in test [1], the binding result was “binds”.

B22: LR3 (VHH)
VHH: QVQLVESGGGSVQAGGSLRLSCAASGTINNITYLGWFRQAPGKEREGVAALITTSGYTYYADSVKGRFTVSLDNAKNTVYLQMNSLKPEDTALYYCAAASWGYEWPLVYDDYWYWGQGTQVTVS
As for B22, in test [1], the binding result was “binds”.

B23: LR9 (VHH)
VHH: QVQLVESGGGSVQAGGSLRLSCAASGSISSITYLGWFRQAPGKEREGVAALITARGRTYYADSVKGRFTVSLDNAKNTVYLQMNSLKPEDTALYYCAAANWGYNWPLAYSDYWYWGQGTQVTVS
Turning to B23, in test [1], the binding result is reported as “binds”.

B24: LR6 (VHH)
VHH: QVQLVESGGGSVQAGGSLRLSCAASGSISSITYLGWFRQAPGKEREGVAALVTTSGNTYYADSVKGRFTVSLDNAKNTVYLQMNSLKPEDTALYYCAAATWGYSWPLEHDEYWYWGQGTQVTVS
For B24, the binding result in test [1] is listed as “binds”.

B25: sybody LR1 (VHH)
VHH: QVQLVESGGGSVQAGGSLRLSCAASGSISSITYLGWFRQAPGKEREGVAALITDSGRTYYADSVKGRFTVSLDNAKNTVYLQMNSLKPEDTALYYCAAAEWGYEWPLYYASSWYWGQGTQVTVS
Turning to B25, the binding result in test [4] is reported as “binds”.

B26: LR2 (VHH)
VHH: QVQLVESGGGSVQAGGSLRLSCAASGDINAIGYLGWFRQAPGKEREGVAALDTDEGQTYYADSVKGRFTVSLDNAKNTVYLQMNSLKPEDTALYYCAAAMNGYNEPLYSYDYEYWGQGTQVTVS
B26: the binding result in test [1] is “binds”.

B27: MR11 (VHH)
VHH: QVQLVESGGGLVQAGGSLRLSCAASGFPVEWTSMVWYRQAPGKEREWVAAIYSAGHHTKYADSVKGRFTISRDNAKNTVYLQMNSLKPEDTAVYYCNVKDYGHDRSNYDYWGQGTQVTVS
Turning to B27, in test [1], the binding result is listed as “binds”.

B28: sybody MR17 (VHH)
VHH: QVQLVESGGGLVQAGGSLRLSCAASGFPVEVWRMEWYRQAPGKEREGVAAIESYGHGTRYADSVKGRFTISRDNAKNTVYLQMNSLKPEDTAVYYCNVKDDGQLAYHYDYWGQGTQVTVS
In test [2], B28 displayed a Kd of 83.7 nM.

B29: LR7 (VHH)
VHH: QVQLVESGGGSVQAGGSLRLSCAASGSISSITYLGWFRQAPGKEREGVAALITNWGHTYYADSVKGRFTVSLDNAKNTVYLQMNSLKPEDTALYYCAAAFHGEQYPLYTNKYHYWGQGTQVTVS
As for B29, in test [1], the binding result is reported as “binds”.
